Reference: patent publication US20240092867A1 (UNIVERSITY OF CHICAGO, published 2024)

T1: recombinant human syndecan-1 (human, UniProt P18827 23-254, limits assumed)
T1 construct: Histidine tag of unstated position and length
T1 sequence (looked up): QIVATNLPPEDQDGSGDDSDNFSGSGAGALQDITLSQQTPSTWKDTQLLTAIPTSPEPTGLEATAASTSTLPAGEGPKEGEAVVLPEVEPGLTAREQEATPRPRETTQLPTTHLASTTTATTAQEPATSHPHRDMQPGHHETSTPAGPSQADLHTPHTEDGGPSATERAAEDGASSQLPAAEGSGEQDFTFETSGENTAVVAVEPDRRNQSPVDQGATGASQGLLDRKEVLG

T2: recombinant human syndecan-4 (human, UniProt P31431 19-145, limits assumed)
T2 construct: Histidine tag of unstated position and length
T2 sequence (looked up): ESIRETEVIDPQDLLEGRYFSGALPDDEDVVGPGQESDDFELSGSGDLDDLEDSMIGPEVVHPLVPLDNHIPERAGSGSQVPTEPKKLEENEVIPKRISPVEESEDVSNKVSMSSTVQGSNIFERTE

T3: placental growth factor (PlGF)-1 (human, UniProt P49763-2 19-149)
T3 construct: mature; Purchased in mature form
T3 sequence (looked up): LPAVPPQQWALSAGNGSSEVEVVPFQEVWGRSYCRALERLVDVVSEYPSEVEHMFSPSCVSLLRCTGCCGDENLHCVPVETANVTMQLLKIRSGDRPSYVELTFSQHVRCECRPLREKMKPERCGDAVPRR

T4: vascular endothelial growth factor (VEGF)-A121 (human, UniProt P15692-9 27-147)
T4 construct: mature; Purchased in mature form, not glycosylated
T4 sequence (looked up): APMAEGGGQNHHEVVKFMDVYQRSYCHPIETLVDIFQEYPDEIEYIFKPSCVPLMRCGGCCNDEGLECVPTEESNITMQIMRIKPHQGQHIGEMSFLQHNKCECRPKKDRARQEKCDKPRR

T5: placental growth factor (PlGF)-2 (human, UniProt P49763-3 19-170)
T5 construct: mature; Purchased in mature form
T5 sequence (looked up): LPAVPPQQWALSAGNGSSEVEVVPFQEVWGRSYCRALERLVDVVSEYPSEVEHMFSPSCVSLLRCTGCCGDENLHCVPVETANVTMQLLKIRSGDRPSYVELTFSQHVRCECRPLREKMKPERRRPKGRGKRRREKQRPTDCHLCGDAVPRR

B1: fibroblast growth factor (FGF)-6 (ligand, UniProt P10767 38-208, looked up)
chain: SPAGTRANNTLLDSRGWGTLLSRSRAGLAGEIAGVNWESGYLVGIKRQRRLYCNVGIGFHLQVLPDGRISGTHEENPYSLLEISTVERGVVSLFGVRSALFVAMNSKGRLYATPSFQEECKFRETLLPNNYNAYESDLYQGTYIALSKYGRVKRGSKVSPIMTVTHFLPRI
notes: mature; Purchased in mature form
B2: bone morphogenetic protein (BMP)-4 (ligand, UniProt P12644 293-408, looked up)
chain: SPKHHSQRARKKNKNCRRHSLYVDFSDVGWNDWIVAPPGYQAFYCHGDCPFPLADHLNSTNHAIVQTLVNSVNSSIPKACCVPTELSAISMLYLDEYDKVVLKNYQEMVVEGCGCR
notes: as for B1
B3: vWF A1 HBD R1341L (peptide)
peptide: YIGLKDRKRPSELLRIASQVKYA
notes: The entry already carries the substitution
B4: vWF A1 HBD R1341P (peptide)
peptide: YIGLKDRKRPSELPRIASQVKYA
notes: as for B3
B5: vWF A1 HBD R1341W (peptide)
peptide: YIGLKDRKRPSELWRIASQVKYA
notes: as for B3
B6: vWF A1 HBD R1341Q (peptide)
peptide: YIGLKDRKRPSELQRIASQVKYA
notes: as for B3
B7: vWF A1 HBD R1341S (peptide)
peptide: YIGLKDRKRPSELSRIASQVKYA
notes: as for B3
B8: bone morphogenetic protein (BMP)-7 (ligand, UniProt P18075 293-431, looked up)
chain: STGSKQRSQNRSKTPKNQEALRMANVAENSSSDQRQACKKHELYVSFRDLGWQDWIIAPEGYAAYYCEGECAFPLNSYMNATNHAIVQTLVHFINPETVPKPCCAPTQLNAISVLYFDDSSNVILKKYRNMVVRACGCH
notes: as for B1

How the values were obtained:
[1] = target: T1, recombinant human syndecan-1; assay: ELISA, peptide coated, syndecan 1 µg/mL, anti-His detection
Procedure: (§1) ELISA tests were performed as described above. In brief, ELISA plates were coated with 1 μg/mL laminin peptide (sequences are described in Table 1, chemically synthesized by Genscript) in PBS for 2 hrs at 37° C. 1 μg/mL of BSA served as non-binding protein control. After blocking with 2% BSA PBS-T solution, 1 μg/mL of the recombinant human syndecan-1, syndecan-2, syndecan-3, syndecan-4 (all syndecan proteins are histidine-tagged; SinoBiological) were added. Bound GF was detected with anti-histidine tag antibody (1:1000 dilution, BioLegend).

[2] = target: T6, recombinant human syndecan-2 (human, UniProt P34741 19-144, limits assumed); assay: as above
T6 construct: Histidine tag of unstated position and length
T6 sequence (P34741 19-144 limits assumed): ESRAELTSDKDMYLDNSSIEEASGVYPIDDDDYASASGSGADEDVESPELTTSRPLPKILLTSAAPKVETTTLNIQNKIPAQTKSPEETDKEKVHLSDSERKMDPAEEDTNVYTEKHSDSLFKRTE
Procedure: as §1

[3] = target: T2, recombinant human syndecan-4; assay: as above
Procedure: as §1

[4] = target: T3, placental growth factor (PlGF)-1; assay: ELISA, peptide coated
Procedure: (§2) (A) The location of laminin-derived peptides in the LG domain of laminin α3, α4, and α5 chains. (B-F) Affinity of heparin and GFs against chemically synthesized peptides derived from the LG domain of laminin α3, α4, and α5 chains. ELISA plates were coated with 10 μg/mL laminin peptide and further incubated with (B) biotinylated heparin, (C) VEGF-A165 and VEGF-A121, (D) PlGF-2 and PlGF-1, (E) PDGF-BB, or (F) FGF-2. Concentrations were 1 μg/mL for GFs and 10 μg/mL for heparin. Bound heparin was detected with streptavidin, and bound GFs with a specific antibody for each GF (n=4, mean±SEM). Statistical analyses were done using the Mann-Whitney U test by comparing the signals obtained from the laminin peptide- and the BSA-coated wells. *p<0.05, **p<0.01.
(§3) ELISA tests were performed as described above. […] 1 μg/mL of BSA served as non-binding protein control. After blocking with 2% BSA PBS-0.05% Tween 20 (PBS-T) solution, 1 μg/mL of the recombinant human proteins (VEGF-A121, VEGF-A165, PlGF-1, PlGF-2, PDGF-BB or FGF-2) or 10 μg/mL of biotinylated heparin (Sigma-Aldrich) were added. Bound GF was detected with biotinylated antibodies for human VEGF, PlGF, PDGF-BB, or FGF-2 (R&D Systems). The antibodies were detected by streptavidin-HRP (R&D Systems).

[5] = target: T4, vascular endothelial growth factor …; assay: ELISA, peptide coated
Procedure: as §2, §3

[6] = target: T7, fibroblast growth factor (FGF)-2 (human, UniProt P09038 143-288); assay: ELISA, peptide coated, GF 1 µg/mL
T7 construct: mature; Purchased in mature form
T7 sequence (P09038 143-288): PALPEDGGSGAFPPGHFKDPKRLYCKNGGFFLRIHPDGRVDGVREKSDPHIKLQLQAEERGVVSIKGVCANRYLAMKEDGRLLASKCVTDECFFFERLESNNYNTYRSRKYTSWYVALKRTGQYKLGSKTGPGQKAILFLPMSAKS
Procedure: as §2, §3

[7] = target: T8, platelet-derived growth factor (PDGF)-BB (human, UniProt P01127 82-190); assay: ELISA, peptide coated, GF 1 µg/mL
T8 construct: mature; Purchased in mature form
T8 sequence (P01127 82-190): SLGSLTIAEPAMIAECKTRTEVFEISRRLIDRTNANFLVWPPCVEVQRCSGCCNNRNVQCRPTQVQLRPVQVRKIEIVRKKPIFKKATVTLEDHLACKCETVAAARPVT
Procedure: as §2, §3

[8] = target: T5, placental growth factor (PlGF)-2; assay: ELISA, peptide coated, GF 1 µg/mL
Procedure: as §2, §3

[9] = target: T9, vascular endothelial growth factor (VEGF)-A165 (human, UniProt P15692-4 27-191); assay: ELISA, peptide coated, GF 1 µg/mL
T9 construct: mature; Purchased in mature form, not glycosylated
Procedure: as §2, §3

human plasma-derived vWF = target: T10, human plasma-derived vWF (human, UniProt P04275 764-2813); assay: ELISA, GF coated 50 nM, vWF 1 µg/mL
T10 construct: mature; also called plasma-derived purified vWF; von Willebrand factor
Procedure: ELISA tests were performed as previously reported1. In brief, ELISA plates (med-binding, Greiner Bio-One) were coated with 50 nM GFs at 37° C. for 2 hrs. […] Then, HRP conjugated goat anti-rabbit antibody (Jackson ImmunoResearch) was added. After 60 min of incubation, 50 μL TMB substrate (Sigma-Aldrich) was added. The reaction was stopped by adding 25 μL of 2N H2SO4. Subsequently, the absorbance at 450 nm was measured and subtracted the absorbance at 570 nm.

laminin-111 = target: T11, laminin-111 (human, UniProt P25391 18-3075; P07942 22-1786; P11047 34-1609); assay: ELISA, GF coated, laminin 10 nM
T11 construct: Full-length recombinant human laminin isoform (BioLamina); Chain composition is read from the isoform name
Procedure: (§4) ELISA tests were performed as previously reported. In brief, ELISA plates (med-binding, Greiner Bio-One) were coated with 50 nM GFs at 37° C. for more than 2 hrs. […] Bound laminin was detected with rabbit anti-human laminin γ1 chain antibody (1:1000 dilution, Assay biotech) or rabbit anti-human laminin α3 chain antibody (1:1000 dilution, Assay biotech). After incubation with biotinylated anti-rabbit antibody for 60 min at room temperature (RT), HRP conjugated streptavidin (Jackson ImmunoResearch) was added. After 60 min of incubation at RT, 50 μL TMB substrate (Sigma-Aldrich) was added. The reactions were stopped by adding 25 μL of 2 N H₂SO₄. Subsequently, the absorbance at 450 nm was measured with a reference of 570 nm.

laminin-511 = target: T12, laminin-511 (human, UniProt O15230 36-3695; P07942 22-1786; P11047 34-1609); assay: ELISA, GF coated, laminin 10 nM
T12 construct: Full-length recombinant human laminin isoform (BioLamina); chains read from the isoform name
Procedure: as §4

laminin-521 = target: T13, laminin-521 (human, UniProt O15230 36-3695; P55268 33-1798; P11047 34-1609); assay: ELISA, GF coated, laminin 10 nM
T13 construct: Full-length recombinant human laminin isoform (BioLamina); chains read from the isoform name
Procedure: as §4

laminin-421 = target: T14, laminin-421 (human, UniProt Q16363 25-1823; P55268 33-1798; P11047 34-1609); assay: ELISA, GF coated, laminin 10 nM
T14 construct: Full-length recombinant human laminin isoform (BioLamina); chains read from the isoform name
Procedure: as §4

laminin-332 = target: T15, laminin-332 (human, UniProt Q16787 28-1724; Q13751 18-1172; Q13753 22-1193, limits assumed); assay: ELISA, GF coated, laminin 10 nM
T15 construct: Full-length recombinant human laminin isoform (BioLamina); chains read from the isoform name
T15 sequence (Q16787 other isoform, or with tags, fused parts or gaps limits assumed, chain 1 of 3): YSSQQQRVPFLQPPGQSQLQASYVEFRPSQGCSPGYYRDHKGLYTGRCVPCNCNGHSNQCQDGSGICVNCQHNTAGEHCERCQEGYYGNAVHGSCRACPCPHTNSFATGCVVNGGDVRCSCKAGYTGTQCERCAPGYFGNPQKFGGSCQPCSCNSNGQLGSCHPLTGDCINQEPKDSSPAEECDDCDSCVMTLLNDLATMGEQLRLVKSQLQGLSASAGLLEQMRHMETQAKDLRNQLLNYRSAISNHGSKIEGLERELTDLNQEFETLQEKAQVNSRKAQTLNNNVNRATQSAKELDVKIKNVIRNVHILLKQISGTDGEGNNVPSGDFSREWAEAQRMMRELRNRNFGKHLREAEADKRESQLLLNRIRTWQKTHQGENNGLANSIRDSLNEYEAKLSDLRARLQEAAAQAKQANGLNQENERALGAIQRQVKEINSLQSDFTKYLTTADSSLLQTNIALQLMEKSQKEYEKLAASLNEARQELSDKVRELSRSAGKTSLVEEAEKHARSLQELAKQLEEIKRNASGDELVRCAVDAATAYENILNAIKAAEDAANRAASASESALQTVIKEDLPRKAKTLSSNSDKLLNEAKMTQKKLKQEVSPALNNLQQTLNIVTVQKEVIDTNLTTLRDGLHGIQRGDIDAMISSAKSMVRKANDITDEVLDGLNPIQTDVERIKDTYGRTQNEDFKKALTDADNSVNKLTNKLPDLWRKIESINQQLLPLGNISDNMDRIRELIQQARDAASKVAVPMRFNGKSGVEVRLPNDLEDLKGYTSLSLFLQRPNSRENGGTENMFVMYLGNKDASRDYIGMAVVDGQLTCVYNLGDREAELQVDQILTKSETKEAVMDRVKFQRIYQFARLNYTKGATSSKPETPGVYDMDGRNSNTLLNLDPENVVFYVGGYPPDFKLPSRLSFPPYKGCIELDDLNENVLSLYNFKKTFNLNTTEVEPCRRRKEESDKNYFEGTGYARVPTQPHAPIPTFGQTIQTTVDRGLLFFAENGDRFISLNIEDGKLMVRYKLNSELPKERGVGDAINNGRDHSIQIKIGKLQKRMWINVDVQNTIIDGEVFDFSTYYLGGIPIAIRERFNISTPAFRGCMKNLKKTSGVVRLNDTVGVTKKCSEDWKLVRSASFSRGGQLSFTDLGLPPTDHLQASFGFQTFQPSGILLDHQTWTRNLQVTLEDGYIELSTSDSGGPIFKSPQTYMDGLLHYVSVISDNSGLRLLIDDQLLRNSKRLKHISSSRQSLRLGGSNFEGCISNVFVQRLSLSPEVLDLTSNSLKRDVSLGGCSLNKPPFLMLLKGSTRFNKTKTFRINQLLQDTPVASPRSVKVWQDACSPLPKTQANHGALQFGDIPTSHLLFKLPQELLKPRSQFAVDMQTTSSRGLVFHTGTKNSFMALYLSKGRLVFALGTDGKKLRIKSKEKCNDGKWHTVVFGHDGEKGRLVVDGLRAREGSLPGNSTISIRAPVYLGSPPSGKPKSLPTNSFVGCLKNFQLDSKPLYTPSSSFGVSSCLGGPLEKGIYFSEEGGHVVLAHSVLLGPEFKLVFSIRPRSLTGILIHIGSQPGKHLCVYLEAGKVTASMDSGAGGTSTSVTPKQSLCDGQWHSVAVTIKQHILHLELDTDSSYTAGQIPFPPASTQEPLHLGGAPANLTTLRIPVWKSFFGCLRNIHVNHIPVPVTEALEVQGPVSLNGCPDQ
T15 sequence (Q13751 18-1172 limits assumed, chain 2 of 3): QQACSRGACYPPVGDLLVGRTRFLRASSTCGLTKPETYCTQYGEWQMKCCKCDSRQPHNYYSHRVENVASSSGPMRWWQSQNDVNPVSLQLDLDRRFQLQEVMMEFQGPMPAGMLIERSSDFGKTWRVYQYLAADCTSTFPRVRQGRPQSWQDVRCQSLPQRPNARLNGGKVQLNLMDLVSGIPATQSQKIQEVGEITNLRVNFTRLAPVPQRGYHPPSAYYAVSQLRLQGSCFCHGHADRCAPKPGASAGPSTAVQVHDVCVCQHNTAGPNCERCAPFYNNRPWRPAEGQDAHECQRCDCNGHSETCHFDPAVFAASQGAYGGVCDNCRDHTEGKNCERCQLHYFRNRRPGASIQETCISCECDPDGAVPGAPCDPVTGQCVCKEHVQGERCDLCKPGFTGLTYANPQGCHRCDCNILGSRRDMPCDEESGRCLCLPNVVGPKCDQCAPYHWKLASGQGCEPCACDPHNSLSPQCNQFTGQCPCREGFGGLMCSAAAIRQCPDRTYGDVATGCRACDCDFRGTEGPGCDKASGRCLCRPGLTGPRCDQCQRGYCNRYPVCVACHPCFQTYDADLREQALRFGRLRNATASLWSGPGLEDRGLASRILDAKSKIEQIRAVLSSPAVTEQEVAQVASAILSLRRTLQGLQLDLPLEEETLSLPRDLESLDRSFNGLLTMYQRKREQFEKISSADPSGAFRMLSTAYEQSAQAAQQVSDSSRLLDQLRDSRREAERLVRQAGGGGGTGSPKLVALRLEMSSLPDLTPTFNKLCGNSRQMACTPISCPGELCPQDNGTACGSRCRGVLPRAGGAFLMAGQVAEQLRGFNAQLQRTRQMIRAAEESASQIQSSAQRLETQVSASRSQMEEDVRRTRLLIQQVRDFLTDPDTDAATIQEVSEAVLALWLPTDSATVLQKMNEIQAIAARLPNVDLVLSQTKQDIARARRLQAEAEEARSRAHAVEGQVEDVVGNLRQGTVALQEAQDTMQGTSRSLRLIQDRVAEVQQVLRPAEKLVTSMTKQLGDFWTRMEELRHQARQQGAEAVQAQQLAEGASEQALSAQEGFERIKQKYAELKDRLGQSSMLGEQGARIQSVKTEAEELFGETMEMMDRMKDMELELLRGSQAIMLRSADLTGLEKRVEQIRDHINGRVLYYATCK
T15 sequence (Q13753 22-1193 limits assumed, chain 3 of 3): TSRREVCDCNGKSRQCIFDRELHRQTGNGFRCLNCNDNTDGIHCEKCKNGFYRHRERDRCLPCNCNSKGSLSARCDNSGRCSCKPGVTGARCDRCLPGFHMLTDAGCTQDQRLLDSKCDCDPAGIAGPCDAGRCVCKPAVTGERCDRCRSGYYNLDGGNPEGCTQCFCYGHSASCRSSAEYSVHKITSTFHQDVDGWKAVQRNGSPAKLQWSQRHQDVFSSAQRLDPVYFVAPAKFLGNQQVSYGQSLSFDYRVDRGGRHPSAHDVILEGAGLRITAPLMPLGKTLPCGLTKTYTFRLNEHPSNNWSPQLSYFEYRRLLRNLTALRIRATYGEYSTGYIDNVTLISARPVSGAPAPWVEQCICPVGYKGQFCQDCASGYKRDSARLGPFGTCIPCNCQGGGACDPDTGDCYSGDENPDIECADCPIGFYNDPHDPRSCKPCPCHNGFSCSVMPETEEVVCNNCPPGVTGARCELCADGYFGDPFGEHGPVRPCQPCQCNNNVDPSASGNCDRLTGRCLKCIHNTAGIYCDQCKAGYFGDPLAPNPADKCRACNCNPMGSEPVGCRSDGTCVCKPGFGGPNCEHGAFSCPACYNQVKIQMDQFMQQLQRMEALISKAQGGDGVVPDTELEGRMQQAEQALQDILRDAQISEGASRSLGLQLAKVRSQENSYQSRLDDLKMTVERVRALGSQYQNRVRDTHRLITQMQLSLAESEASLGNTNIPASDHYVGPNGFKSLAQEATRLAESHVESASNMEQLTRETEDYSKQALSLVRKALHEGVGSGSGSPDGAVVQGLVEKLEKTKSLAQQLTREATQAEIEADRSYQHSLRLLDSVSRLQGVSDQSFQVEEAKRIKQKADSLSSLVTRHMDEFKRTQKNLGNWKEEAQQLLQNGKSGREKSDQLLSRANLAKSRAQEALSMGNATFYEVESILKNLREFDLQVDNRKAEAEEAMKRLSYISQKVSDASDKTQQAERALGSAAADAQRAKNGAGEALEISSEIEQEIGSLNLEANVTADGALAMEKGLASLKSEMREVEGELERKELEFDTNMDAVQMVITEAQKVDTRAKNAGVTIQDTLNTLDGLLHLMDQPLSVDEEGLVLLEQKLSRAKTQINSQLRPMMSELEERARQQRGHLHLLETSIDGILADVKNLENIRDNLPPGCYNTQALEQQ
Procedure: as §4

laminin-411 = target: T16, laminin-411 (human, UniProt Q16363 25-1823; P07942 22-1786; P11047 34-1609); assay: ELISA, GF coated, laminin 10 nM
T16 construct: Full-length recombinant human laminin isoform (BioLamina); chains read from the isoform name
Procedure: as §4

laminin-211 = target: T17, laminin-211 (human, UniProt P24043 23-3122; P07942 22-1786; P11047 34-1609); assay: ELISA, GF coated, laminin 10 nM
T17 construct: Full-length recombinant human laminin isoform (BioLamina); chains read from the isoform name
Procedure: as §4

[10] = target: T7, fibroblast growth factor (FGF)-2; assay: ELISA, HBD peptides
[11] = target: T8, platelet-derived growth factor (PDGF)-BB; assay: ELISA, HBD peptides
[12] = target: T9, vascular endothelial growth factor …; assay: ELISA, HBD peptides
Target sequence in this assay (P15692 other isoform, or with tags, fused parts or gaps limits assumed): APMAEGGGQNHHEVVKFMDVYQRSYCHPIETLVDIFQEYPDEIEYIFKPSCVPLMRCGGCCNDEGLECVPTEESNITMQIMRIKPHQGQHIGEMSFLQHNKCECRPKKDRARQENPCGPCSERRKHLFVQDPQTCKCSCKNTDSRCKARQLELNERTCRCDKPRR

Binder | binding result (laminin-111) | binding result (laminin-511) | binding result (laminin-521) | binding result (laminin-421) | binding result (laminin-332) | binding result (laminin-411) | binding result (laminin-211) | binding result [10] | binding result [11] | binding result [12] | other results
RLVFALGTDGKKLRIKSKEKCNDGK (Chemically synthesized (Genscript)) [laminin α3 3043-3067 peptide (LG4)] |  |  |  |  |  |  |  |  |  |  | binding result [1]: binds; binding result [2]: binds; binding result [3]: binds; binding result [4]: no binding (tested: 1 µg/mL); binding result [5]: no binding (tested: 1 µg/mL); binding result [6]: binds; binding result [7]: binds; binding result [8]: binds; binding result [9]: binds
B1 | no binding (tested: A450 0.1) | no binding (tested: A450 0.1) | no binding (tested: A450 0.1) | no binding (tested: A450 0.1) | no binding (tested: A450 0.1) | no binding (tested: A450 0.1) | no binding (tested: A450 0.1) |  |  |  | binding result (human plasma-derived vWF): no binding
TLFLAHGRLVYMFNVGHKKLKIR (Chemically synthesized (Genscript)) [laminin α4 1521-1543 peptide (LG4)] |  |  |  |  |  |  |  |  |  |  | binding result [1]: binds; binding result [2]: binds; binding result [3]: binds; binding result [4]: no binding (tested: 1 µg/mL); binding result [5]: no binding (tested: 1 µg/mL); binding result [6]: binds; binding result [8]: binds; binding result [9]: binds
B2 | no binding (tested: A450 0.1) | no binding (tested: A450 0.1) | no binding (tested: A450 0.1) | no binding (tested: A450 0.1) | no binding (tested: A450 0.1) | no binding (tested: A450 0.1) | no binding (tested: A450 0.1) |  |  |  | 
B3 |  |  |  |  |  |  |  | no binding | no binding | no binding | 
B4 |  |  |  |  |  |  |  | no binding | no binding | no binding | 
B5 |  |  |  |  |  |  |  | no binding | no binding | no binding | 
B6 |  |  |  |  |  |  |  | no binding | no binding | no binding | 
B7 |  |  |  |  |  |  |  | no binding | no binding | no binding | 
B8 | no binding (tested: A450 0.1) | no binding (tested: A450 0.1) | no binding (tested: A450 0.1) | no binding (tested: A450 0.1) | no binding (tested: A450 0.1) | no binding (tested: A450 0.1) | no binding (tested: A450 0.1) |  |  |  | binding result (human plasma-derived vWF): no binding
